Assay: soluble fraction after stress (log2 fold change); higher = more stays soluble; pooled small domains, quantitative proteomics
Settings: stress: 75 degC
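Also: 20 min heating vs room temperature control held 20 min.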

Sequence | soluble fraction (log2)
HMKNIFDWLKQINYHKQPADSFTEKDWELFNSYMVHRFMSMNREFIEVVNYVQEMPPQEKILIYNIYREF | -2.16
HMKNIINFIVKEDDNNKRVDMILANHDKSLSRTRVKNLILDSKLKINERIVQDPSIKTKLNDKIELEIVEP | 0.631
HMKNIINLVIDGELHGKRIDAVIAQKNDSLSRTRIKNLVINGNLSINDEIVSDPSKKIYKDDKVSLTIPLP | -0.322
HMKNIMRQWIELEPDQGKIRSKLYSLDRVVEETTNEVGMIKLLLEIDEKELNNLVSHNDIRLV | -0.425
HMKNIRKQAIEAIDRIKNGNPIVISKNAKLIFKNIAKEANVSPTELHREFRDVMLYVNSLKAP | -0.346
HMKNKVTVPKVEGMDKEEAIQALNEVGLGYKAVMQSSDSVAEGKVISQGTAAGKKVDKNTQIIITVSGG | 0.237
HMKNLADNIVALRKKHGLSQEQFAEKIDVTRQAVSNWERRIATPDVETIDLIAKLFDTDLTALVNG | -0.342
HMKNLKLVSNTDGIRIDSWLADEFEDYSRSYLRKLIDQDLVYVNGNKIKANYKLKKGDEISISIPEPE | -0.151
HMKNLTERQQQIIALISGNPLITRAEIASAIGFSVKTIERELSILSEIVSYVGSKKGGHWEIQT | -2.66
HMKNLTERQQRIIALISENPQTTRAEIAGAIGVATKTIERELTTLSNIVYYVGPKKGGHWEIIK | -1.51
HMKNLTEVEYSEFLESIAQDRVSKVQVDGLIIRGEMNDGQRFETVQPQVTDKALIDDMVNHRVDFSGARP | 0.295
HMKNMSLGERIKEQRKSSGLSQEKVAEFVGVSRQAVTKWETGQSAPSTENLFKLAEIFGTTVDILLA | -0.198
HMKNNAIAPDQVVSLLKNEVNYNDDGRIEILDNNKNIRYNSKGELLTIEERVNEFLDANPHFRK | 0.0664
HMKNSMANVQARREKILSAVDQSEPVAVEGLAQRFNVSITTLRRDLKALSDMGQVKWHHGLVERT | -0.229
HMKNVADEVFEKMLNMIIEGDWKKGEMIPSENELREAFSVSRSTVRQAVQRLSALGIVRSRQGKGTYVEQV | -1.7
HMKNYYELLGVAREASQDQIKKAYRKLARKYHPDVSKEADAETRMQELNVAYDTLSDAEKKREYDFQLDHP | 0.0883
HMKPDDDMLLKILTKLFIQKQFVINSKDIFQYILKNTNRTYENIINIVNRLDTLSIEKKRQLTIPLIKEI | -0.585
HMKPEQIELTFSGTTAMRLDKFLAENQPGLSRAKLQAIISSGSVEVNGKVITKQAFKLDPGDLVKALIPE | -1.23
HMKPGWEDIFRMNQIQLEDAVRTVNRDDTLAPTKKAYLIQNLLASRWIVGNQLQAQKDKTTE | -0.126
HMKPGYVIQVNGTVTKIQSGLVYVKTPAAQYTLMRKYAPADAAVGDRVSLWINEEGMVIDVHGK | -2.03
HMKPKDILLPNFTNLTLDEAKAKAEEVKLNLNVSEEKYDVQIEEGKIISQDPKYQPNYTVKEGSTVNVVVS | ≥ 1.04
HMKPLIIPLELMQRLSSDKQLEAGFNRFSKSKQHEFAAYIAAAKRVETKVKRLEKIIPLILSGEGLNDR | -2.35
HMKPLRPVHLEIQTHRLSPVGILRSSFRQAGKVMHSNHGRITGLNLEQLKLIQAAFAGEALPK | -0.158
HMKPQIRRHEKITALVREHGFMSVEQLARELEVTPQTIRRDIGILSAENVLRRYHGGAALGD | -0.941
HMKPSNLTSDERTQLLAQLKTAMGSDQYNQLRRQVGEEKLLEYVLDNVPGIQEEILGNRAVQENIDLH | 0.0107
HMKPSTVSVPDVSGDKLSTAKMIIRKSGLKVGDVQKIEDDNVGAGKVVRTNPSAGSKKREGSSVDIFVASA | -0.0331

Sequence | soluble fraction (log2)
HMKPTVKGHFTRKESNVGGYADVRGWGVAGTPSMMANQSKDTRRFSTLIVPGRSVNVHPSPTKEAIIWWQS | -0.224
HMKPTVKKLLAALPELRSGQPLHLSVATRKLRDAGLLGKNASSPTLFRNYVAQFELIPENQPNAVRYR | -0.786
HMKPVSEMDNMEWVREQYFQNMIYEIGEWVKDKKTGIVGEIVKRGTNYVTIVQEDFSLHKIWLEDLETTE | -0.428
HMKQDYYSILGVMRDASQEEIKRAYLDAAQRLHPDRNTSAGDTEMFLDVQQAYEVLSNPKRRAQYDATLP | 0.383
HMKQEFEMGLPNGVGEQMLAHAIEKFDVKLEHSEFGPKLIGTYEELEKAKVFLYEAIEARLNQLE | 0.279
HMKQISNTDELETMVKKIIDDNEEQVNKYRGGNEKLFGWFVGQAMKNTGGTANPKVVNEILSKLLK | -0.0646
HMKQLLHLVIGGELKDVRGIEFEDLSKIDFVGAFPSYKAAYDAWKNAAQRTVDNAEMRYFILHAHR | -1.92
HMKQLRVLGIVKAGSILKNSDGSIEFVIEDSGKSLLVKYKGVIPDIFKDGVEAVVEGDLRGSVFNADKLF | -1.14
HMKQMNETQQKAFEIYLDSATFETDYKPISEEQLAAKLDALGLKGSSSSINRWKKDFNWAQALQNKVTLAM | -0.166
HMKQQNFADLAGRFVFNADNEVVFNFGKHKNVPVATVLKNEPGYYGWMMGGDFPLFTKKILKQIKEA | -1.05
HMKQTFGAMLAALRKEKGMTQLELAEQMGVTDKAVSKWERDLSFPDVTSLPRLAEILEVSVDELMQ | -0.146
HMKQVNVVSVIGQSEANAKTTLTGLGLKVNVAYEEDTSKADGIVLKQSLEGGKTVNEGTTITITVNKIA | 0.579
HMKQVSDTGAIDAAIREVMDANPDKVAEYRSGKDKLFGFFVGQIMRAMAGKAAPVVVNDRLKALLD | 0.123
HMKQVTVGGTINAGGARIYADSYGNGGGRQTFGSDPIYTVLQERNGYILTRWHKLSSGYTGWFKKSDVSA | -0.917
HMKQYSFEISKADFKKISENFNFKIINEINDSLIISLNDKNINLDELLIFFVERKIKVRSIENI | -3.69
HMKREELTQQTKQNLREAFWSLYIQKPIEKITVKEITDIAGYNRGTFYLYYKDTYDLLAKIE | -0.279
HMKRLLLPGDLAGVRRHLLDRENSFHILRVLRLARGSTIEAMDDAGNRFSATLAGVKAGRALFDLAAKI | -1.75
HMKRLPAQMGGGDGVLRVPGLNNFVYVTIADKTLPAFNNRVPPKKGLRIWVGYSPEEPNLFQVLSTRTD | -1.83
HMKRLPMRKIRDVLRLSADGLSTRKIGVSLTIGRTTVQAYLDRAAEVDLSWPLPPEMSDTDLERLIYPR | -3.14
HMKRNLVSVLDHIVGIGPKRRQSLRTHFGSLEKIKEASVEELAAAPGMNRTSAEAVRHFFDAQQELRGK | 0.727
HMKRRSVIVSVVRAQVRQSADEAAAVVFEAEKNVSLDYLETMPGGWVKVRHRDGQTGFVRVNQIWG | -1.59
HMKRSFGYIRLLPSKRYQASYIGPDSQRHAAPETFTRKMDAEGWLSAERRLIEWDQWTSPEQRAAQARLD | -0.663
HMKRTRLEEAMDWLREQLNDGPVAYATLKDEAPKAEITLSTLRAAGEALRVDKQKKGVQWGGWTWSLPR | 0.00234
HMKRVTRQRTEILRVIDESERPLGPQEILQAGREAIPSLSIATIYRTLRDLLAEELIKTVALPGDSPRYES | -1.33
HMKSARDDILSALDKAGEPLSMKDIAELSGRKLSTLRAQMTRLVAEGAVQATAAAHSPDRKYRK | -0.319
HMKSARQIAILEIIAEKSIETQEDLADALRLRGFQVTQATVSRDIKELRLVKALAPDGTYRYATAEK | -1.57

Sequence | soluble fraction (log2)
HMKSEIRKKNSQIILDAAEHEFSVHGYRGTSVQMIADRSGLPKANLHYYYKSKSALYGAVLDRIL | 0.215
HMKSERHALILSLIEKKNVETQEDLAELLKERGVAVTQATVSRDIKELRLIKVLSETGGYKYATVDKAE | -0.908
HMKSIETVAELVAELKKLNPNAKISNIDGTYTLEEDINTITLPKDFKYDNNLGINNKIDDFTPYISLDVKA | 0.662
HMKSIRIPFILTEGPNSQKITIDIDSDEEFRIGDVFDEDDKLWSINQILISGDRKAKMAIASEVTSISALR | -2.01
HMKSKYLIKIEGDFDEKDLYKYLINVSIVNHTKNNGFTEVEFYNDNYSLQQNFLKSMLNDGIIITEFKKVE | -0.49
HMKSLHSEVTDRIRQLIVESHLQPGQRVPELEISRDLGVSRTPIREALKVLAAEGLVELLPLRGAMVK | -0.0555
HMKSLLTARQLEVFEIARNKGYWTTPRKISLVELSKLLDISKSTLSVLLHSIEGKVMEEFYEEIRQ | -2.22
HMKSNIIPLSLKKPQRLDIFLTNYFVDLSRTQIKKMITDGNIKVNDLIAKPSLKLIGDEIIFYTLPK | -1.46
HMKSNNPLDHVRVKQRGASWAYYFEKAKVDGKRRRGEGGGYATEQDARMAGVEAYNAYIGGGAK | -0.172
HMKSPVKLILRGSIYHIKISAVVNGQRIFVRESSHTTDKREAEQYANKRFAQLVEETEFRTN | -1.18
HMKSQSIFNVKKGDTLSHIAVHVLKKNKQKVTPEAINKMVSNIAFRNKIKNPDLIFPGQKLVLEY | -0.169
HMKSQVVAYSDFVKAVNQKQINEVQIQGDKIRAINKAGEEITVTWLQNDQKLMDDLLDNNVKTIFLE | 0.0189
HMKSSYSGNFKQNVVEYMHNNHLSATETANHFKLGGGSVVLRWERIYYEEGPQALYEERRGR | -1.26
HMKSYAQIAEILSGQQPNTSRKEGSNLAVHADWIDALIAKYGTALRPEEANEVVKKEIGIVFSHVLEN | -0.412
HMKSYQKITPATEGNYLTTYREGDDIKTYEGVKAMYTPADFDASSVREITPEEHQSYQKAKEQALQEETEQ | -0.204
HMKTALDEAKDFLNGALSKGHRPASDVVDEAKEASISEKTLKRAKLAIGIITRKEGFGSEGKWVWELPAR | -0.375
HMKTATAKIKATPFGWLRVRETPSLNGAEIARVNSGESYKILERGEGWIKIKVSDTVEGWVSEAYVELS | -0.244
HMKTEKYIQVISGTVNVRSGPGTSYAEIAKIDASQIYVVTAKEGEWLKISLANGTIGYVAGWLVKEVTG | -1.47
HMKTEVNITPGIIDWIERYVQTDKISSSMTEDFQHWKSGTKKPTFNQVEAFSKAINVPLGYFFLKTPPAE | -0.725
HMKTFSFEILADTVKKQRKAKGMTQAELSEATGINRSMIGQMENMTFKPSIEQLEALSQALDFNVIDLYTE | -0.325
HMKTGHLPVTVIIDGRIISDNLYKTGLSNNWLADQLRKNSIKSSEDVFFAYLNPERKFIYQLRSNS | -1.49
HMKTGNIVMVNLGWKGKYYSIKMFFPQVSKPSRKDVQDQIEKIYPGGKLYTFVVSNYEPGEPMLHA | -1.41
HMKTITLDEAQEIALAEVDGKVTRAVEETDDGRSYYEFDIITNDQKHELEVDASSGKITKNEIDEDYVPS | 0.0581
HMKTITVEDEQAGKRLDKALAELFPHYSRSALEKLIKEGQVLVNKSFVKSKYSLKLGDEISLQFEQL | -0.325

From the domain aggregation screens of Martell et al. (2025)
